B1: FhHDM-1: 90-residue polypeptide from F. hepatica, Helminth Defense Molecule-1 (SEQ ID NO:24); recombinant form minus N-terminal signal peptide, expressed in E. coli (protein, listed as Fasciola hepatica)
chain: MRFIVLLCLAEVLLAAYVEARPSEESREKLRESGRKMVKALRDAVTKAYEKARDRAMAYLAKDNLGEKITEVITILLNRLTDRLEKYAGN

Assays:
[1] = tested on: immune cell invasion of pancreatic islets; test: Insulitis in NOD mouse model of type 1 diabetes; format: in vivo; conditions: NOD mice, 6 injections every second day from 5 weeks, sacrificed at 10 weeks
Source text: Non-obese diabetic (NOD) mice (model of Type 1 diabetes) were given 6 injections (on every second day) of proteinaceous compound beginning at 5 weeks of age and animals were sacrificed at 10 weeks of age (i.e. when insulitis develops). Subsequently, formalin-fixed, paraffin-embedded pancreata was stained with haematoxylin and eosin to assess islet inflammation (i.e., insulitis).
Islet insulitis was scored as 0 (healthy islet), 1 (peri-insulitis up to 25% of islet occupied by leukocytes), 2 (leukocytic infiltration from 25% up to 50% of islet mass), 3 (leukocytic infiltration from 50% up to 75% of islet mass) or 4 (less than 25% of islet mass present). Accordingly, the greater the percentage of islets with higher insulitis scores the worse the prognosis for diabetes development would be for that animal.

[2] = tested on: primary human macrophages; test: Proteomics analysis of treated macrophages; format: cell-based
Source text: FIG. 11 is a diagrammatic representation showing a Venn diagram of soluble proteins identified in primary human macrophages.

peritoneal macrophages = test: IL-10 secretion by peritoneal macrophages of treated NOD mice; format: in vivo; conditions: 10 μg i.p. x6, 24 h after last injection, compared to untreated mice
Protocol: FhHDM-1 was given to female NOD mice aged 4 weeks. 10 μg of FhHDM-1 was delivered i.p. in PBS on alternate days for a total of 6 doses. 24 h after the last injection, macrophages were isolated from the peritoneal lavage and cultured in RPMI supplemented with FCS for 12 h. IL-10 secreted into the media was measured by ELISA.
Female NOD mice (n=6) were given recombinant HDM (10 μg in 100 μL sterile PBS) by intraperitoneal (i.p.) injection on alternate days beginning at 4 weeks of age for a total of 6 injections. Control mice were given 100 μL of sterile PBS on the same days. 24 h after the last injection mice were sacrificed and peritoneal cells harvested by lavage. Macrophages were isolated from peritoneal lavages based upon their adherent properties, and cultured overnight at 37° C. in RPMI supplemented with FCS. The quantity of IL-10 secreted into the media was measured by ELISA.

NOD mice = test: Diabetes development in NOD mice (blood glucose); format: in vivo
Protocol: FIG. 13 is a graphical representation showing that FhHDM-1 protects NOD mice from developing diabetes. FhHDM-1 was given to female NOD mice aged 4 weeks. 10 μg of FhHDM-1 was delivered i.p. in PBS on alternate days for a total of 6 doses. Blood glucose readings were taken weekly and mice with two consecutive readings >14 mmol/L were deemed diabetic.
Female NOD mice (n=10) were given recombinant HDM (10 μg in 100 μL sterile PBS) by intraperitoneal (i.p.) injection on alternate days beginning at 4 weeks of age for a total of 6 injections. Control mice were given 100 μL of sterile PBS on the same days. Blood glucose levels were measured once a week, from the age of 13 weeks, using Accu-check Advantage blood glucose strips (Roche). Animals were sacrificed when they became overtly diabetic; as defined by two random blood glucose concentrations above 12 mM. Statistical analysis of the times the animal was sacrificed was performed using survival analysis.

RAW macrophages = test: ATP induced macrophage cell death (LDH release); format: cell-based, murine; conditions: 20 μg/mL pre-treatment 1 h, then ATP 5 mM 2 h
Protocol: FIG. 16 is a graphical representation showing that FhHDM-1 P3 prevents ATP induced cell death in RAW macrophages. RAW macrophages were pretreated with either FhHDM-1 (20 μg/mL) or FhHDM-1 p3 (20 μg/mL) for 1 h, then washed and cultured in the presence of ATP (5 mM) for 2 h. Cell death (% cytotoxicity) was quantified according to the amount of LDH released by the cells into culture media.
Raw macrophages were pre-treated with either HDM (20 μg/mL) or FhHDM-1 P3 (20 μg/mL) for 1 h, washed and then cultured in the presence of ATP (5 mM) for 2 h. The culture supernatants were collected and assayed for LDH activity with an LDH release kit. The amount of LDH release by cells treated with ATP only was used to represent 100% cytotoxicity.

[3] = tested on: inflammatory response to bacterial lipopolysaccharide; test: Inflammatory response to LPS in vivo after HDM pre-treatment; conditions: BALB/c mice, 1 μg i.p. 2 h before 1 μg LPS, 4 h later
Protocol: Female BALB/c mice were given 1 μg of FhHDM-1 i.p. and 2 h later given 1 μg of E. coli LPS i.p. After another 4 h, mice were sacrificed and serum and peritoneal macrophages assessed for the presence of inflammatory cytokines.
Female BALB/c mice (n=5) were given a single intraperitoneal injection of 1 μg of recombinant HDM two hours prior to an intraperitoneal injection of 1 μg of E. coli lipopolysaccharide. Four hours later, mice were sacrificed and blood and peritoneal cells were harvested. Peritoneal macrophages were isolated from lavage fluid based upon their adherent properties, and cultured overnight at 37° C. in RPMI supplemented with FCS. The quantities of inflammatory cytokines in both sera and culture media from macrophages were measured by ELISA.

[4] = tested on: primary human macrophages; test: Confocal microscopy of macrophages incubated with FhHDM-1; format: cell-based; conditions: 10 μg/mL for 2 h
Protocol: FIG. 10 is a photographic representation showing representative immunofluorescent images obtained by confocal microscopy at an original magnification 100× of primary human macrophages (A) and (C) incubated with recombinant FhHDM-1 (10 μg/mL for 2 h). Images (B) and (D) were experimental controls incubated with media only. Cells were stained with mouse anti-His MAb (1/2000), goat-anti-mouse Alexa-488-conjugated secondary antibody (1/1000) (green staining) and DiI plasma membrane stain (red staining). DAPI was used for identification of the cell nucleus (blue staining).

[5] = of 237 proteins present in both samples

Row | Molecule | immune cell invasion of pancreatic islets (insulitis) [1] | lysosomal proteins of primary macrophages [2] | number of proteins down-regulated following treatment [2, 5] | number of proteins up-regulated following treatment [2, 5] | KEGG pathways in primary human macrophages (Table 5) ([2]; proteomic analysis) | number of proteins uniquely expressed in the treated sample ([2]; versus PBS-treated sample) | IL-10 secreted by peritoneal macrophages (peritoneal macrophages) | further time the level of protection was sustained (NOD mice; after 18 weeks of age) [weeks] | normoglycaemic mice (NOD mice; female NOD mice, 10 μg i.p. alternate days x6 from 4 weeks, at 18 weeks of age) [%] | LDH release induced by ATP (cytotoxicity of ATP) (RAW macrophages) | IL-12 secreted by peritoneal macrophages [3] | TNFα secreted by peritoneal macrophages [3] | levels of IL-10 in circulation [3] | quantity of TNFα in sera [3] | interaction with the plasma membrane of macrophages [4]
1 | KARDRAMAYLAKDNLGEKITEVITILLNRL (FhHDM-1 peptide 1 comprising a truncated amphipathic helix contained in FhHDM-1) [FhHDM-1 p1, peptide in which the amphipathic helix is truncated] | no significant activity | – | – | – | – | – | – | – | – | – | – | – | – | – | –
2 | B1 | – | down-regulates | 44 | 42 | down-regulated | 6 | significantly more | 7 | 80 | no significant effect | significantly less | significantly less | significantly reduced | also reduced this did not reach significance | interacts with the plasma membrane
